From PMC3321547 (Biochemistry, 2009)
Where “and” joins values, the source holds several entries; their conditions need not be identical. Equal entries are not always repeated.

Experiments:
[1] = target: T1, DKH412 (Drosophila kinesin heavy chain residues 1-412, dimeric head construct) (Drosophila, UniProt P17210 1-412); assay: inhibition of mADP release from the heads
[2] = target: T1, DKH412 (Drosophila kinesin heavy chain …); assay: inhibition of basal steady state ATPase
[3] = target: T1, DKH412 (Drosophila kinesin heavy chain …); assay: inhibition of mADP release from the heads; remark: listed apart in the source
[4] = target: T1, DKH412 (Drosophila kinesin heavy chain …); assay: inhibition of basal steady state ATPase; remark: listed apart in the source
[5] = target: T1, DKH412 (Drosophila kinesin heavy chain …); assay: co-sedimentation
[6] = target: T1, DKH412 (Drosophila kinesin heavy chain …); assay: FRET or BRET

B1: NF910-952 (non-fusion kinesin tail peptide, residues 910-952) (peptide)
chain: not shown
[1]
  Kd: 21 nM
[2]
  stoichiometry N: 1 tail peptide per two head peptides
[3]
  Kd: 330 nM
[4]
  Kd: 66 nM

B2: TT910-952mGFP (thioredoxin fusion of kinesin tail residues 910-952 with C-terminal mGFP) (domain or fragment)
chain: not shown
[5]
  stoichiometry N: < 0.5 TT910-952mGFP per DKH412 monomer and ~0.5 tail peptide per head peptide

B3: NF910-952mGFP (non-fusion kinesin tail peptide 910-952 with C-terminal mGFP) (domain or fragment)
chain: not shown
[6]
  Kd: 400 nM
  koff: ~32 s⁻¹
  observed rate of dissociation with a 5-fold excess of unlabelled tail (trace b): 30.9 s⁻¹
  observed rate of dissociation with a 20-fold excess of unlabelled tail (trace c): 32.8 s⁻¹

## AVRQKHLGRRGPQAQIAKPIRSGQGATS (domain or fragment, Drosophila) [TT927-952 (thioredoxin fusion of kinesin tail residues 927-952)]
[2]
  Kd: < 100 nM
